Measurements reported in patent US20170361126A1, “Compositions and Methods for Inducing Nanoparticle Mediated Microvascular Embolization of Tumors” (Vindico NanoBioTechnology, LLC, priority 2011, published 2017).

Legend:
[1] = Biodistribution/pharmacokinetics after IV injection in 4T1 tumor-bearing mice; type: in vivo, balb/c mice; settings: via the kidneys and into the bladder
Procedure: In example studies, 0.5×10^6 to 1×10^6 4 T1 mouse mammary carcinoma cells were injected into the mammary fat pads of balb/c mice. Once the tumors were greater than 5 mm in diameter, mice were randomized and treated via tail vein catheter with PEMs (at 100 μL of 2.5 mg/mL Mb, corresponding to 50 mg/mL polymer suspensions), empty polymersomes (at equivalent polymer doses), and NIR-Mb (at equivalent myoglobin doses) (n=5 per group). NIR-Mb and PEM were reduced to their oxy-myoglobin form prior to treatment, following protocols discussed above. Mice were sacrificed at 24 h (for biodistribution/pharmacokinetic studies) or at 6-9 days (for histology and toxicology assessment following tumor efficacy studies). […]
For all biodistribution studies, NIR imaging of polymersomes, NIR-Mb and PEM was conducted with an MS® Kinetic Imaging System (Perkin Elmer, AeX=745 nm, Aem=810-875 nm) equipped with a Xenogen XGI-8 gas anesthesia system. Fluorescence images were analyzed with Living Image® 4.2 software by measuring radiant efficiency of regions of interest (ROIs). […]
For the pharmacokinetic studies, 15-100 μL blood samples were drawn (using a 5.5 mm lancet, Goldenrod) from the submandibular vein of the mouse and collected directly into heparinized capillary tubes (Kimble). […] The total radiant efficiency of the plasma in each capillary tube was measured in a region of interest of consistent dimensions. […]

[2] = Serum chemistry panel and liver histology of treated tumor-bearing mice; type: in vivo; settings: n=5 mice per treatment; FIG. 21
Procedure: In example studies, 0.5×10^6 to 1×10^6 4 T1 mouse mammary carcinoma cells were injected into the mammary fat pads of balb/c mice. Once the tumors were greater than 5 mm in diameter, mice were randomized and treated via tail vein catheter with PEMs (at 100 μL of 2.5 mg/mL Mb, corresponding to 50 mg/mL polymer suspensions), empty polymersomes (at equivalent polymer doses), and NIR-Mb (at equivalent myoglobin doses) (n=5 per group). NIR-Mb and PEM were reduced to their oxy-myoglobin form prior to treatment, following protocols discussed above. Mice were sacrificed at 24 h (for biodistribution/pharmacokinetic studies) or at 6-9 days (for histology and toxicology assessment following tumor efficacy studies). In both cases, EF-5 was used to stain for hypoxia and Hoechst solution for perfusion. Tumors were collected at sacrifice. Immunofluorescence (IF) was carried out to image EF-5 and Hoechst distribution throughout the tumors. The same tumor sections were also stained with hematoxylin and eosin (H&E) for immunohistologic (IHC) analysis. Blood was collected via cardiac puncture at sacrifice; plasma was isolated and stored at −80° C. for later analyses.
FIG. 21 provides results of a serum chemistry panel done for a set of tumor-bearing mice injected with each of the following treatments (n=5 mice per treatment): NIR-myoglobin (control), empty polymersomes (control), and PEMs. […]

[3] = Oxygen equilibrium binding curves (Hemox Analyzer, Hill model); settings: partial pressure of O2 at 50% saturation; 37° C.
Procedure: Oxygen equilibrium binding curves of PEM and free Mb dispersions may be measured using a Hemox™ Analyzer at physiological temperature (37° C.). In brief, samples may be allowed to saturate to a pO2 of 147 mm Hg using compressed air and then deoxygenated using a compressed nitrogen stream. UV-Vis absorbance measurements of oxygenated and deoxygenated samples may be recorded as a function of pO2 via dual wavelength spectroscopy. Oxygen-PEM/myoglobin equilibrium curves may be fit to a four-parameter (A0, A∞, P50, n) Hill model:
in which A0 and A∞ represent the absorbance at 0 mm Hg and at full O2 saturation, respectively. The pO2 represents the partial pressure of O2, and P50 represents the partial pressure of O2 where PEM/Mb is 50% saturated with oxygen. Lastly, ‘n’ represents the cooperativity coefficient of PEM/Mb. […] The lower O2 affinity (higher P5o) of PEM than free myoglobin may be attributed to the shielding effect of the polymersome membrane, which was further found to delay the kinetics of O2 binding to PEM.

B1: NIR-Mb: near-infrared fluorophore (IRDye800cw NHS) covalently attached to the lysines on horse skeletal myoglobin; negative control (conjugate, UniProt P68082 2-154, looked up)
Myoglobin: GLSDGEWQQVLNVWGKVEADIAGHGQEVLIRLFTGHPETLEKFDKFKHLKTEAEMKASEDLKKHGTVVLTALGGILKKKGHHEAELKPLAQSHATKHKIPIKYLEFISDAIIHVLHSKHPGDFGADAQGAMTKALELFRNDIAAKYKELGFQG
modifications: IRDye800CW NHS on lysines
notes: near-infrared fluorophore (IRDye800cw NHS) covalently attached to the lysines on horse skeletal myoglobin; negative control
plasma clearance [1]: extremely rapid plasma clearance | serum chemistry panel [2]: no consistently elevated levels for any parameter

B2: free Mb: free (unencapsulated) myoglobin, a cytoplasmic heme protein (protein, UniProt P02144 2-154, looked up)
Myoglobin: GLSDGEWQLVLNVWGKVEADIPGHGQEVLIRLFKGHPETLEKFDKFKHLKSEDEMKASEDLKKHGATVLTALGGILKKKGHHEAEIKPLAQSHATKHKIPVKYLEFISECIIQVLQSKHPGDFGADAQGAMNKALELFRKDMASNYKELGFQG
P50 [3]: ~2 mm Hg
